Like-named read-outs stand apart in the source and are kept apart here.
Tests used:
Assay in all cases: FRET or BRET
[1] = molecular target: HLA-A, B, C (human (endogenous in KU812))
[2] = molecular target: H-2K^b/D^b (mouse (endogenous in BMMCs))
[3] = molecular target: H-2K^b/D^b (mouse (endogenous in BMMCs)); remark: listed apart in the source

FRET efficiency (%) [1] [%]	Molecule	other results
20.7	leukocyte immunoglobulin (Ig)-like receptor (LILR) B2 (from UniProt Q8N423 22-597)	–
14.5	β2-microglobulin (β2m), human (from UniProt P61769 21-119) (natural protein)	–
–	β2-microglobulin (β2m), mouse (from UniProt P01887 21-119) (natural protein)	FRET efficiency (%) [2]: 8%
–	paired Ig-like receptor (PIR)–B (receptor, tyrosine-phosphorylated, constitutively and after IgE stimulation (residues not given)) SLPKPILRVQPDSVVSRRTKVTFLCEETIGANEYRLYKDGKLYKTVTKNKQKPENKAEFSFSNVDLSNAGQYRCSYSTQYKSSGYSDLLELVVTGHYWTPSLLAQASPVVTSGGYVTLQCESWHNDHKFILTVEGPQKLSWTQDSQYNYSTRKYHALFSVGPVTPNQRWICRCYSYDRNRPYVWSPPSESVELLVSGNLQKPTIKAEPGSVITSKRAMTIWCQGNLDAEVYFLHNEKSQKTQSTQTLQEPGNKGKFFIPSVTLQHAGQYRCYCYGSAGWSQPSDTLELVVTGIYEYYEPRLSVLPSPVVTAGGNMTLHCASDFPYDKFILTKEDKKFGNSLDTEHISSSGQYRALFIIGPTTPTHTGAFRCYGYYKNAPQLWSVPSALQQILISGLSKKPSLLTHQGHILDPGMTLTLQCFSDINYDRFALHKVGGADIMQHSSQQTDTGFSVANFTLGYVSSSTGGQYRCYGAHNLSSEWSASSEPLDILITGQLPLTPSLSVQPNHTVHSGETVSLLCWSMDSVDTFILSKEGSAQQPLRLKSKSHDQQSQAEFSMSAVTSHLSGTYRCYGAQDSSFYLLSSASAPVELTVSGPIETSTPPPTMSMPLGGLHMYLKALIGVSVAFILFLFIFIFILLRRRHRGKFRKDVQKEKDLQLSSGAEEPITRKGELQKRPNPAAATQEESLYASVEDMQTEDGVELNSWTPPEEDPQGETYAQVKPSRLRKAGHVSPSVMSREQLNTEYEQAEEGQGANNQAAESGESQDVTYAQLCSRTLRQGAAASPLSQAGEAPEEPSVYATLAAARPEAVPKDMEQ	FRET efficiency (%) [3]: 13.5%

Reference: PMC2118540
